Measurements taken from paper PMC6584647, “Integrated NMR and cryo-EM atomic-resolution structure determination of a half-megadalton enzyme complex” (Nature Communications, 2019).

Molecular target: the molecule itself
Experiment: cryo-EM structure; single-particle cryo-EM map at 4.1 Å with tetrahedral symmetry imposed, refined jointly with MAS NMR and solution-NMR restraints (XPLOR-NIH, full dodecamer)

B1: aminopeptidase TET2 from Pyrococcus horikoshii (enzyme)
chain: MEVRNMVDYELLKKVVEAPGVSGYEFLGIRDVVIEEIKDYVDEVKVDKLGNVIAHKKGEGPKVMIAAHMDQIGLMVTHIEKNGFLRVAPIGGVDPKTLIAQRFKVWIDKGKFIYGVGASVPPHIQKPEDRKKAPDWDQIFIDIGAESKEEAEDMGVKIGTVITWDGRLERLGKHRFVSIAFDDRIAVYTILEVAKQLKDAKADVYFVATVQEEVGLRGARTSAFGIEPDYGFAIDVTIAADIPGTPEHKQVTHLGKGTAIKIMDRSVICHPTIVRWLEELAKKHEIPYQLEILLGGGTDAGAIHLTKAGVPTGALSVPARYIHSNTEVVDERDVDATVELMTKALENIHELKI
notes: TET2 aminopeptidase, Pyrococcus horikoshii, UniProt O59196; 353 residues (39 kDa) per subunit as printed; Dodecamer of 12 x 39 kDa (468 kDa), with two zinc ions in each active site; Samples carried various isotope labels (2H, 13C, 15N, methyl labelling); the cryo-EM sample was u-[2H,13C,15N]-labelled; No tag is mentioned; source: E. coli BL21(DE3), purified (heating to 85 °C, Resource Q, size …)
stoichiometry N: 12
